Biological target: ELOBC heterodimer (UniProt Q15370;Q15369)
Experiment: SEC-MALS

Chain of ELOBC heterodimer (Q15370 whole entry, chain 1 of 2): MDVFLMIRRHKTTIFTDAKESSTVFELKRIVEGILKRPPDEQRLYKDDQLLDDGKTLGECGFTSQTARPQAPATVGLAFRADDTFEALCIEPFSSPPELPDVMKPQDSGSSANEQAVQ
Chain of ELOBC heterodimer (Q15369 whole entry, chain 2 of 2): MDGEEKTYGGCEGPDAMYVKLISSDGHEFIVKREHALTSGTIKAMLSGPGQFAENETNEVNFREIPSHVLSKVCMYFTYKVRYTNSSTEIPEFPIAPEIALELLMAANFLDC

B1: Strep-Vif (HIV-1 Vif, wild type) (natural protein)
chain: not shown
- binding result: binds

Source: publication PMC3582769 (Molecular cell, 2013)
